Patent US20130142788A1 (published 2013)

Experiments:
[1] = target: T1, recombinant mature dimeric myostatin (human and mouse (mature sequences 100% …, UniProt O08689 268-376)); assay: ActRIIb neutralisation ELISA: inhibition of 2 nM biotinylated myostatin binding to coated ActRIIb
T1 construct: also called GDF-8; mature myostatin
T1 sequence: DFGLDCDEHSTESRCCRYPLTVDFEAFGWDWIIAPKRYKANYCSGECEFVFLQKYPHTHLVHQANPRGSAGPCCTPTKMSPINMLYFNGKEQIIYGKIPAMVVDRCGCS
Method: Recombinant soluble ActRIIb (R&D Systems 339-RBB) was coated in wells of an ELISA plate at 1 μg/ml in carbonate buffer overnight at 4° C. Plates were blocked with PBS containing 0.1% tween 20 and 0.1% BSA and washed following standard ELISA protocols. In parallel, 2 nM biotinylated myostatin (in-house reagent, described above) was pre-incubated with a dilution series of the antibodies of Tables 21 and 22 for 30 minutes at 37° C. The biotinylated myostatin:antibody reactions were then added (50 μl/well) to the ActRIIb coated plate for 1 hour at 37° C. Standard wash procedures were followed prior to addition of 50 μl per well of a 1:200 diluted streptavidin-HRP conjugate (R&D Systems. #890803) followed by a further 37° C. incubation for 1 hour. Plates were again washed and assayed at absorbance 490 nm following substrate (R&D Systems, #DY999) and acid stop solution treatment.

[2] = target: T1, recombinant mature dimeric myostatin; assay: cell-based or functional assay

B1: H3L4 (antibody, IgG1, V domains shown)
VH: QVQLVQSGAEVKKPGASVKVSCKASGYSFTGYFMHWVRQAPGQGLEWIGNIYPYNGVSNYNQRFKARATLTTDTSTSTAYMELRSLRSDDTAVYYCARRYYYGTGPADWYYDVWGQGTLVTVSS
VL: DIQMTQSPSSLSASVGDRVTITCKASQDINSYLSWFQQKPGKAPKSLIYRANRLVDGVPSKFSGSGSGQDYTLTISSLQPEDFATYYCLQSDEFPLTFGQGTKLEIKR
notes: Humanised IgG1/kappa
In the case of B1, the IC50 [1] is reported as 1.31 nM.

B2: H5L5 (antibody, IgG1, V domains shown)
VH: QVQLVQSGAEVKKPGASVKVSCKASGYSFTGYFMHWVRQAPGQGLEWIGNIYPYNGVSNYNQRFKARATLTVDKSTSTAYMELRSLRSDDTAVYYCARRYYYGTGPADWYYDVWGQGTLVTVSS
VL: DIQMTQSPSSLSASVGDRVTITCKASQDINSYLSWFQQKPGKAPKTLIYRANRLVDGVPSKFSGSGSGTDYTLTISSLQPEDFATYYCLQSDEFPLTFGQGTKLEIKR
notes: Humanised IgG1/kappa
For B2, the “IC50, myostatin responsive reporter gene neutralisation assay (A204)” value (from here on “IC50 … (A204)”) [2] was 6.1 nM and the IC50 [1] was 0.149 nM.

B3: H5L4 (antibody, IgG1, V domains shown)
VH: QVQLVQSGAEVKKPGASVKVSCKASGYSFTGYFMHWVRQAPGQGLEWIGNIYPYNGVSNYNQRFKARATLTVDKSTSTAYMELRSLRSDDTAVYYCARRYYYGTGPADWYYDVWGQGTLVTVSS
VL: DIQMTQSPSSLSASVGDRVTITCKASQDINSYLSWFQQKPGKAPKSLIYRANRLVDGVPSKFSGSGSGQDYTLTISSLQPEDFATYYCLQSDEFPLTFGQGTKLEIKR
notes: Humanised IgG1/kappa
Binder B3 has an IC50 [1] of 0.211 nM.

B4: H4L5 (antibody, IgG1, V domains shown)
VH: QVQLVQSGAEVKKPGASVKVSCKASGYSFTGYFMHWVRQAPGQGLEWMGNIYPYNGVSNYNQRFKARVTMTVDKSTSTAYMELRSLRSDDTAVYYCARRYYYGTGPADWYYDVWGQGTLVTVSS
VL: DIQMTQSPSSLSASVGDRVTITCKASQDINSYLSWFQQKPGKAPKTLIYRANRLVDGVPSKFSGSGSGTDYTLTISSLQPEDFATYYCLQSDEFPLTFGQGTKLEIKR
notes: Humanised IgG1/kappa
In the case of B4, the “IC50 … (A204)” value [2] is reported as 6.5 nM and the IC50 [1] is reported as 0.336 nM.

B5: H8L6 (antibody, IgG1, V domains shown)
VH: QVQLVQSGAEVKKPGASVKVSCKASGYSFTGYFMHWVRQAPGQGLEWIGNIYPYNSVSNYNQRFKARATLTVDKSTSTAYMELRSLRSDDTAVYYCARRYYYGTGPADWYYDVWGQGTLVTVSS
VL: DIQMTQSPSSLSASVGDRVTITCKASQDINSYLSWFQQKPGKAPKTLIYRANRLVDGVPSKFSGSGSGQDYTLTISSLQPEDFATYYCLQSDEFPLTFGQGTKLEIKR
notes: Humanised IgG1/kappa
B5 showed an IC50 [1] of 0.101 nM.

B6: H7L4 (antibody, IgG1, V domains shown)
VH: QVQLVQSGAEVKKPGASVKVSCKASGYSFTGYFMHWVRQAPGQGLEWMGNIYPYNSVSNYNQRFKARVTMTVDKSTSTAYMELRSLRSDDTAVYYCARRYYYGTGPADWYYDVWGQGTLVTVSS
VL: DIQMTQSPSSLSASVGDRVTITCKASQDINSYLSWFQQKPGKAPKSLIYRANRLVDGVPSKFSGSGSGQDYTLTISSLQPEDFATYYCLQSDEFPLTFGQGTKLEIKR
notes: Humanised IgG1/kappa
For B6, the IC50 [1] was 0.038 nM.

B7: H6L6 (antibody, IgG1, V domains shown)
VH: QVQLVQSGAEVKKPGASVKISCKASGYSFTGYFMHWVRQAPGQGLEWIGNIYPYNGVSNYNQRFKAKATLTVDKSTSTAYMELRSLRSDDTAVYYCARRYYYGTGPADWYYDVWGQGTLVTVSS
VL: DIQMTQSPSSLSASVGDRVTITCKASQDINSYLSWFQQKPGKAPKTLIYRANRLVDGVPSKFSGSGSGQDYTLTISSLQPEDFATYYCLQSDEFPLTFGQGTKLEIKR
notes: Humanised IgG1/kappa
For B7, the IC50 [1] was 0.32 nM.

B8: H7L6 (antibody, IgG1, V domains shown)
VH: QVQLVQSGAEVKKPGASVKVSCKASGYSFTGYFMHWVRQAPGQGLEWMGNIYPYNSVSNYNQRFKARVTMTVDKSTSTAYMELRSLRSDDTAVYYCARRYYYGTGPADWYYDVWGQGTLVTVSS
VL: DIQMTQSPSSLSASVGDRVTITCKASQDINSYLSWFQQKPGKAPKTLIYRANRLVDGVPSKFSGSGSGQDYTLTISSLQPEDFATYYCLQSDEFPLTFGQGTKLEIKR
notes: Humanised IgG1/kappa
For B8, the IC50 [1] was 0.031 nM.

B9: H5L6 (antibody, IgG1, V domains shown)
VH: QVQLVQSGAEVKKPGASVKVSCKASGYSFTGYFMHWVRQAPGQGLEWIGNIYPYNGVSNYNQRFKARATLTVDKSTSTAYMELRSLRSDDTAVYYCARRYYYGTGPADWYYDVWGQGTLVTVSS
VL: DIQMTQSPSSLSASVGDRVTITCKASQDINSYLSWFQQKPGKAPKTLIYRANRLVDGVPSKFSGSGSGQDYTLTISSLQPEDFATYYCLQSDEFPLTFGQGTKLEIKR
notes: Humanised IgG1/kappa
B9 showed an IC50 [1] of 0.166 nM.

B10: H9L6 (antibody, IgG1, V domains shown)
VH: QVQLVQSGAEVKKPGASVKISCKASGYSFTGYFMHWVRQAPGQGLEWIGNIYPYNSVSNYNQRFKAKATLTVDKSTSTAYMELRSLRSDDTAVYYCARRYYYGTGPADWYYDVWGQGTLVTVSS
VL: DIQMTQSPSSLSASVGDRVTITCKASQDINSYLSWFQQKPGKAPKTLIYRANRLVDGVPSKFSGSGSGQDYTLTISSLQPEDFATYYCLQSDEFPLTFGQGTKLEIKR
notes: Humanised IgG1/kappa
For B10, the IC50 [1] was 0.129 nM.

B11: H4L4 (antibody, IgG1, V domains shown)
VH: QVQLVQSGAEVKKPGASVKVSCKASGYSFTGYFMHWVRQAPGQGLEWMGNIYPYNGVSNYNQRFKARVTMTVDKSTSTAYMELRSLRSDDTAVYYCARRYYYGTGPADWYYDVWGQGTLVTVSS
VL: DIQMTQSPSSLSASVGDRVTITCKASQDINSYLSWFQQKPGKAPKSLIYRANRLVDGVPSKFSGSGSGQDYTLTISSLQPEDFATYYCLQSDEFPLTFGQGTKLEIKR
notes: Humanised IgG1/kappa
With B11 the “IC50 … (A204)” value [2] was 7.9 nM and the IC50 [1] was 0.395 nM.

B12: H6L4 (antibody, IgG1, V domains shown)
VH: QVQLVQSGAEVKKPGASVKISCKASGYSFTGYFMHWVRQAPGQGLEWIGNIYPYNGVSNYNQRFKAKATLTVDKSTSTAYMELRSLRSDDTAVYYCARRYYYGTGPADWYYDVWGQGTLVTVSS
VL: DIQMTQSPSSLSASVGDRVTITCKASQDINSYLSWFQQKPGKAPKSLIYRANRLVDGVPSKFSGSGSGQDYTLTISSLQPEDFATYYCLQSDEFPLTFGQGTKLEIKR
notes: Humanised IgG1/kappa
Binder B12 has an IC50 [1] of 0.225 nM.

B13: H3L6 (antibody, IgG1, V domains shown)
VH: QVQLVQSGAEVKKPGASVKVSCKASGYSFTGYFMHWVRQAPGQGLEWIGNIYPYNGVSNYNQRFKARATLTTDTSTSTAYMELRSLRSDDTAVYYCARRYYYGTGPADWYYDVWGQGTLVTVSS
VL: DIQMTQSPSSLSASVGDRVTITCKASQDINSYLSWFQQKPGKAPKTLIYRANRLVDGVPSKFSGSGSGQDYTLTISSLQPEDFATYYCLQSDEFPLTFGQGTKLEIKR
notes: Humanised IgG1/kappa
With B13 the IC50 [1] was 3.04 nM.

B14: H6L5 (antibody, IgG1, V domains shown)
VH: QVQLVQSGAEVKKPGASVKISCKASGYSFTGYFMHWVRQAPGQGLEWIGNIYPYNGVSNYNQRFKAKATLTVDKSTSTAYMELRSLRSDDTAVYYCARRYYYGTGPADWYYDVWGQGTLVTVSS
VL: DIQMTQSPSSLSASVGDRVTITCKASQDINSYLSWFQQKPGKAPKTLIYRANRLVDGVPSKFSGSGSGTDYTLTISSLQPEDFATYYCLQSDEFPLTFGQGTKLEIKR
B14 was tested, and the “IC50 … (A204)” value [2] was 6 nM.

B15: H9L4 (antibody, IgG1, V domains shown)
VH: QVQLVQSGAEVKKPGASVKISCKASGYSFTGYFMHWVRQAPGQGLEWIGNIYPYNSVSNYNQRFKAKATLTVDKSTSTAYMELRSLRSDDTAVYYCARRYYYGTGPADWYYDVWGQGTLVTVSS
VL: DIQMTQSPSSLSASVGDRVTITCKASQDINSYLSWFQQKPGKAPKSLIYRANRLVDGVPSKFSGSGSGQDYTLTISSLQPEDFATYYCLQSDEFPLTFGQGTKLEIKR
notes: Humanised IgG1/kappa
In the case of B15, the IC50 [1] is reported as 0.141 nM.

B16: H8L4 (antibody, IgG1, V domains shown)
VH: QVQLVQSGAEVKKPGASVKVSCKASGYSFTGYFMHWVRQAPGQGLEWIGNIYPYNSVSNYNQRFKARATLTVDKSTSTAYMELRSLRSDDTAVYYCARRYYYGTGPADWYYDVWGQGTLVTVSS
VL: DIQMTQSPSSLSASVGDRVTITCKASQDINSYLSWFQQKPGKAPKSLIYRANRLVDGVPSKFSGSGSGQDYTLTISSLQPEDFATYYCLQSDEFPLTFGQGTKLEIKR
notes: Humanised IgG1/kappa
B16 was tested, and the IC50 [1] was 0.079 nM.

B17: H4L6 (antibody, IgG1, V domains shown)
VH: QVQLVQSGAEVKKPGASVKVSCKASGYSFTGYFMHWVRQAPGQGLEWMGNIYPYNGVSNYNQRFKARVTMTVDKSTSTAYMELRSLRSDDTAVYYCARRYYYGTGPADWYYDVWGQGTLVTVSS
VL: DIQMTQSPSSLSASVGDRVTITCKASQDINSYLSWFQQKPGKAPKTLIYRANRLVDGVPSKFSGSGSGQDYTLTISSLQPEDFATYYCLQSDEFPLTFGQGTKLEIKR
notes: Humanised IgG1/kappa
With B17 the “IC50 … (A204)” value [2] was 6.9 nM and the IC50 [1] was 0.273 nM.

B18: H3L5 (antibody, IgG1, V domains shown)
VH: QVQLVQSGAEVKKPGASVKVSCKASGYSFTGYFMHWVRQAPGQGLEWIGNIYPYNGVSNYNQRFKARATLTTDTSTSTAYMELRSLRSDDTAVYYCARRYYYGTGPADWYYDVWGQGTLVTVSS
VL: DIQMTQSPSSLSASVGDRVTITCKASQDINSYLSWFQQKPGKAPKTLIYRANRLVDGVPSKFSGSGSGTDYTLTISSLQPEDFATYYCLQSDEFPLTFGQGTKLEIKR
notes: Humanised IgG1/kappa
In the case of B18, the IC50 [1] is reported as 1.08 nM.

B19: H7L5 (antibody, IgG1, V domains shown)
VH: QVQLVQSGAEVKKPGASVKVSCKASGYSFTGYFMHWVRQAPGQGLEWMGNIYPYNSVSNYNQRFKARVTMTVDKSTSTAYMELRSLRSDDTAVYYCARRYYYGTGPADWYYDVWGQGTLVTVSS
VL: DIQMTQSPSSLSASVGDRVTITCKASQDINSYLSWFQQKPGKAPKTLIYRANRLVDGVPSKFSGSGSGTDYTLTISSLQPEDFATYYCLQSDEFPLTFGQGTKLEIKR
notes: Humanised IgG1/kappa
B19 was tested, and the “IC50 … (A204)” value [2] was 6.3 nM and the IC50 [1] was 0.028 nM.
